Data set [1] deals with Gal4 (1-147). The data set can be described thus: ensemble FRET. As to conditions: EMSA: 10 mM Tris-HCl pH 8, 130 mM NaCl, 10% glycerol, 0.0075% Tween-20, 0.5 nM DNA or nucleosome, smFRET: same Tris/NaCl/glycerol with 0.5% Tween-20, 0.1 mg/ml …. (In EMSA bound probe runs differently from free probe, usually more slowly.)
Data set [2] has as its system Gal4 (1-147). The data set can be described thus: single-molecule FRET. As to conditions: EMSA: 10 mM Tris-HCl pH 8, 130 mM NaCl, 10% glycerol, 0.0075% Tween-20, 0.5 nM DNA or nucleosome, smFRET: same Tris/NaCl/glycerol with 0.5% Tween-20, 0.1 mg/ml ….

What is called pKd is the Kd on a negative log10 scale, so that one unit is a factor of ten.

pKd: −log10 of the molar value.

In the case of P26 nucleosome, full Gal4 site (D1), the K half in the data set on Gal4 (1-147) [1] worked out at 4.3 nM. P26 nucleosome, 222 bp had a negative logarithm of the Kd (pKd) in the data set on Gal4 (1-147) [2] (kon eff 0.11 nM-1 s-1, koff 0.66 s-1) of 8.21. In turn, P33 nucleosome, full Gal4 site came in with a K half in the data set with Gal4 (1-147) [1] of 240 nM. Substance P36 nucleosome, 222 bp showed a negative logarithm of the Kd (pKd) in the data set on Gal4 (1-147) [2] (kon eff 0.004 nM-1 s-1, koff 1.03 s-1) of 6.59. With “P28 nucleosome, full Gal4 site (called P29 once in text)”, the K half in the data set on Gal4 (1-147) [1] (text prints P29) was 1.7 nM. For P31 nucleosome, 222 bp, the pKd in the data set with Gal4 (1-147) [2] (kon eff 0.0008 nM-1 s-1, koff 0.83 s-1) was 6.01. In the case of P26 nucleosome D17, the K half in the data set with Gal4 (1-147) [1] (amino-C6-dT at nt 17 of strand 1) was 9 nM.

As for P31 nucleosome, full Gal4 site, the K half in the data set on Gal4 (1-147) [1] turned out to be 500 nM.

P36 nucleosome, full Gal4 site registered a K half in the data set on Gal4 (1-147) [1] of 290 nM.

For the origin of these results see publication PMC9943653.
